Reference: publication PMC12313940, “Insights into a water-mediated catalytic triad architecture in CE20 carbohydrate esterases” (Nature Communications, 2025)

How the values were obtained:
PpCE20_II = molecular target: T1, PpCE20_II (Pedobacter psychrotolerans, UniProt A0A4R2HIK5); assay: p-nitrophenolate release, stopped with acetonitrile, […] nm; type: biochemical; conditions: preferred temperature and pH of the enzyme
T1 construct: gene EV200_102244; catalytic residues Ser114, Asp518, His520

Fl8CE20_II [1] = molecular target: T2, Fl8CE20_II (Salinimicrobium marinum, UniProt A0A918SDW1, Y335N); assay: p-nitrophenol release, absorbance […] nm, Michaelis-Menten fit; type: biochemical; conditions: 50 mM Tris-HCl pH 8.0, 100 mM NaCl, 5% DMSO, room temperature
T2 construct: gene GCM10007103_17970; pET28a(+), N-terminal 6xHis tag, expressed in E. coli BL21(DE3), SGNH hydrolase with inserted ancillary domain

Fl8CE20_II [2] = molecular target: T3, Fl8CE20_II (Salinimicrobium marinum, UniProt A0A918SDW1, K371M); assay: as above; type: biochemical; conditions: 50 mM Tris-HCl pH 8.0, 100 mM NaCl, 5% DMSO, room temperature
T3 construct: gene GCM10007103_17970; pET28a(+), N-terminal 6xHis tag, expressed in E. coli BL21(DE3), SGNH hydrolase with inserted ancillary domain

purified protein = substrate: CC(=O)Oc1ccc([N+](=O)[O-])cc1; assay: purified protein; type: biochemical, Salinimicrobium marinum; conditions: 50 mM Tris-HCl pH 8.0, 100 mM NaCl, 5% DMSO, room temperature

T1 sequence (A0A4R2HIK5 entry or part of it): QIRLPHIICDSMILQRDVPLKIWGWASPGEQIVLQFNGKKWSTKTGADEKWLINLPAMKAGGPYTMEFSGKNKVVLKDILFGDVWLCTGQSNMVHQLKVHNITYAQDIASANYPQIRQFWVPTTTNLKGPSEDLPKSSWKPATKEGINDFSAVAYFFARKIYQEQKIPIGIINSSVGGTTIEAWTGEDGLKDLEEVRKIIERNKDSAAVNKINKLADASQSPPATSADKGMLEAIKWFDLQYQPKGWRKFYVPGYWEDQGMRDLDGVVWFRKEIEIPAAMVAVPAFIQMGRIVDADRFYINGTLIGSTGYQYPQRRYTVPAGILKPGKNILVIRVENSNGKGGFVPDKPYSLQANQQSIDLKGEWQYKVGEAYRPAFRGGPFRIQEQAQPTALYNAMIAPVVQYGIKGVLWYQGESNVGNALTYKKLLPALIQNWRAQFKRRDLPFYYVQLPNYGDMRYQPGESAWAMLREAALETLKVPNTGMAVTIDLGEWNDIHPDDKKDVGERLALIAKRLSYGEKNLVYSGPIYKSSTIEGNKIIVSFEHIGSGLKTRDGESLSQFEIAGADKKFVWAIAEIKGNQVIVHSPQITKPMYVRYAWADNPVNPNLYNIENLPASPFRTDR
T2 sequence (A0A918SDW1 entry or part of it Y335N): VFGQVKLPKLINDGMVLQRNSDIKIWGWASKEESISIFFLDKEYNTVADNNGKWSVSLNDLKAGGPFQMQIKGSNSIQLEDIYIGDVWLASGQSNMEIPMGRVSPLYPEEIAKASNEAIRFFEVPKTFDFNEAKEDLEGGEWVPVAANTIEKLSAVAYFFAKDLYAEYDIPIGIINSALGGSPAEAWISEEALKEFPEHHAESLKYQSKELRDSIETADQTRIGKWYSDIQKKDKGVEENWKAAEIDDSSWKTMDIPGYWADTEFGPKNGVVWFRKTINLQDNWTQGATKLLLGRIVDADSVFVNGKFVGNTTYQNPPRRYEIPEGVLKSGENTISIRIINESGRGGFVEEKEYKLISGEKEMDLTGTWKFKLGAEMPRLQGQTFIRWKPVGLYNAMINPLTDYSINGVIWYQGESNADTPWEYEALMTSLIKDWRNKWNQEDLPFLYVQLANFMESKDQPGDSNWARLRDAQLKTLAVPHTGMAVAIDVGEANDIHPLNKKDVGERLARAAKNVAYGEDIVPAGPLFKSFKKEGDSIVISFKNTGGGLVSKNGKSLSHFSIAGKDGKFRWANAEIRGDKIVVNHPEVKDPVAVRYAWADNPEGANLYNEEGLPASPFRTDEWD
T3 sequence (A0A918SDW1 entry or part of it K371M): as the sequence (A0A918SDW1 entry or part of it Y335N) above, with N316Y, K352M counted along it

| Molecule | KM (PpCE20_II) | KM (Fl8CE20_II [1]) | KM (Fl8CE20_II [2]) | Km (purified protein) | kcat (purified protein) |
| --- | --- | --- | --- | --- | --- |
| CC(=O)Oc1ccc([N+](=O)[O-])cc1 [pNP-acetate] | In terms of biochemical and kinetic behaviour, all enzymes showed similar properties | mutation of Tyr334 to Asn in the ancillary domain resulted in a decrease in kcat | slight reduction of kcat while showing the same KM as the mutant D513N | – | – |
| Fl8CE20_II (Salinimicrobium marinum) (protein, pET28a(+), N-terminal 6xHis tag, expressed in E. coli BL21(DE3), SGNH hydrolase with inserted ancillary domain) VFGQVKLPKLINDGMVLQRNSDIKIWGWASKEESISIFFLDKEYNTVADNNGKWSVSLNDLKAGGPFQMQIKGSNSIQLEDIYIGDVWLASGQSNMEIPMGRVSPLYPEEIAKASNEAIRFFEVPKTFDFNEAKEDLEGGEWVPVAANTIEKLSAVAYFFAKDLYAEYDIPIGIINSALGGSPAEAWISEEALKEFPEHHAESLKYQSKELRDSIETADQTRIGKWYSDIQKKDKGVEENWKAAEIDDSSWKTMDIPGYWADTEFGPKNGVVWFRKTINLQDNWTQGATKLLLGRIVDADSVFVNGKFVGNTTYQYPPRRYEIPEGVLKSGENTISIRIINESGRGGFVEEKEYKLISGEKEMDLTGTWKFKLGAEMPRLQGQTFIRWKPVGLYNAMINPLTDYSINGVIWYQGESNADTPWEYEALMTSLIKDWRNKWNQEDLPFLYVQLANFMESKDQPGDSNWARLRDAQLKTLAVPHTGMAVAIDVGEANDIHPLNKKDVGERLARAAKNVAYGEDIVPAGPLFKSFKKEGDSIVISFKNTGGGLVSKNGKSLSHFSIAGKDGKFRWANAEIRGDKIVVNHPEVKDPVAVRYAWADNPEGANLYNEEGLPASPFRTDEWD | – | – | – | 620 µM | 9.70 s⁻¹ |
| Fl8CE20_II (Salinimicrobium marinum; R314E) (protein, pET28a(+), N-terminal 6xHis tag, expressed in E. coli BL21(DE3), SGNH hydrolase with inserted ancillary domain) VFGQVKLPKLINDGMVLQRNSDIKIWGWASKEESISIFFLDKEYNTVADNNGKWSVSLNDLKAGGPFQMQIKGSNSIQLEDIYIGDVWLASGQSNMEIPMGRVSPLYPEEIAKASNEAIRFFEVPKTFDFNEAKEDLEGGEWVPVAANTIEKLSAVAYFFAKDLYAEYDIPIGIINSALGGSPAEAWISEEALKEFPEHHAESLKYQSKELRDSIETADQTRIGKWYSDIQKKDKGVEENWKAAEIDDSSWKTMDIPGYWADTEFGPKNGVVWFRKTINLQDNWTQGATKLLLGEIVDADSVFVNGKFVGNTTYQYPPRRYEIPEGVLKSGENTISIRIINESGRGGFVEEKEYKLISGEKEMDLTGTWKFKLGAEMPRLQGQTFIRWKPVGLYNAMINPLTDYSINGVIWYQGESNADTPWEYEALMTSLIKDWRNKWNQEDLPFLYVQLANFMESKDQPGDSNWARLRDAQLKTLAVPHTGMAVAIDVGEANDIHPLNKKDVGERLARAAKNVAYGEDIVPAGPLFKSFKKEGDSIVISFKNTGGGLVSKNGKSLSHFSIAGKDGKFRWANAEIRGDKIVVNHPEVKDPVAVRYAWADNPEGANLYNEEGLPASPFRTDEWD | – | – | – | 300 µM | 4.67 s⁻¹ |
| Fl8CE20_II (Salinimicrobium marinum; D514Q) (protein, pET28a(+), N-terminal 6xHis tag, expressed in E. coli BL21(DE3), SGNH hydrolase with inserted ancillary domain) VFGQVKLPKLINDGMVLQRNSDIKIWGWASKEESISIFFLDKEYNTVADNNGKWSVSLNDLKAGGPFQMQIKGSNSIQLEDIYIGDVWLASGQSNMEIPMGRVSPLYPEEIAKASNEAIRFFEVPKTFDFNEAKEDLEGGEWVPVAANTIEKLSAVAYFFAKDLYAEYDIPIGIINSALGGSPAEAWISEEALKEFPEHHAESLKYQSKELRDSIETADQTRIGKWYSDIQKKDKGVEENWKAAEIDDSSWKTMDIPGYWADTEFGPKNGVVWFRKTINLQDNWTQGATKLLLGRIVDADSVFVNGKFVGNTTYQYPPRRYEIPEGVLKSGENTISIRIINESGRGGFVEEKEYKLISGEKEMDLTGTWKFKLGAEMPRLQGQTFIRWKPVGLYNAMINPLTDYSINGVIWYQGESNADTPWEYEALMTSLIKDWRNKWNQEDLPFLYVQLANFMESKDQPGDSNWARLRDAQLKTLAVPHTGMAVAIDVGEANQIHPLNKKDVGERLARAAKNVAYGEDIVPAGPLFKSFKKEGDSIVISFKNTGGGLVSKNGKSLSHFSIAGKDGKFRWANAEIRGDKIVVNHPEVKDPVAVRYAWADNPEGANLYNEEGLPASPFRTDEWD | – | – | – | 9890 µM | 0.18 s⁻¹ |
| Fl8CE20_II (Salinimicrobium marinum; R314Q) (protein, pET28a(+), N-terminal 6xHis tag, expressed in E. coli BL21(DE3), SGNH hydrolase with inserted ancillary domain) VFGQVKLPKLINDGMVLQRNSDIKIWGWASKEESISIFFLDKEYNTVADNNGKWSVSLNDLKAGGPFQMQIKGSNSIQLEDIYIGDVWLASGQSNMEIPMGRVSPLYPEEIAKASNEAIRFFEVPKTFDFNEAKEDLEGGEWVPVAANTIEKLSAVAYFFAKDLYAEYDIPIGIINSALGGSPAEAWISEEALKEFPEHHAESLKYQSKELRDSIETADQTRIGKWYSDIQKKDKGVEENWKAAEIDDSSWKTMDIPGYWADTEFGPKNGVVWFRKTINLQDNWTQGATKLLLGQIVDADSVFVNGKFVGNTTYQYPPRRYEIPEGVLKSGENTISIRIINESGRGGFVEEKEYKLISGEKEMDLTGTWKFKLGAEMPRLQGQTFIRWKPVGLYNAMINPLTDYSINGVIWYQGESNADTPWEYEALMTSLIKDWRNKWNQEDLPFLYVQLANFMESKDQPGDSNWARLRDAQLKTLAVPHTGMAVAIDVGEANDIHPLNKKDVGERLARAAKNVAYGEDIVPAGPLFKSFKKEGDSIVISFKNTGGGLVSKNGKSLSHFSIAGKDGKFRWANAEIRGDKIVVNHPEVKDPVAVRYAWADNPEGANLYNEEGLPASPFRTDEWD | – | – | – | 40 µM | 1.3 s⁻¹ |
| Fl8CE20_II (Salinimicrobium marinum; D514E) (protein, pET28a(+), N-terminal 6xHis tag, expressed in E. coli BL21(DE3), SGNH hydrolase with inserted ancillary domain) VFGQVKLPKLINDGMVLQRNSDIKIWGWASKEESISIFFLDKEYNTVADNNGKWSVSLNDLKAGGPFQMQIKGSNSIQLEDIYIGDVWLASGQSNMEIPMGRVSPLYPEEIAKASNEAIRFFEVPKTFDFNEAKEDLEGGEWVPVAANTIEKLSAVAYFFAKDLYAEYDIPIGIINSALGGSPAEAWISEEALKEFPEHHAESLKYQSKELRDSIETADQTRIGKWYSDIQKKDKGVEENWKAAEIDDSSWKTMDIPGYWADTEFGPKNGVVWFRKTINLQDNWTQGATKLLLGRIVDADSVFVNGKFVGNTTYQYPPRRYEIPEGVLKSGENTISIRIINESGRGGFVEEKEYKLISGEKEMDLTGTWKFKLGAEMPRLQGQTFIRWKPVGLYNAMINPLTDYSINGVIWYQGESNADTPWEYEALMTSLIKDWRNKWNQEDLPFLYVQLANFMESKDQPGDSNWARLRDAQLKTLAVPHTGMAVAIDVGEANEIHPLNKKDVGERLARAAKNVAYGEDIVPAGPLFKSFKKEGDSIVISFKNTGGGLVSKNGKSLSHFSIAGKDGKFRWANAEIRGDKIVVNHPEVKDPVAVRYAWADNPEGANLYNEEGLPASPFRTDEWD | – | – | – | 2300 µM | 0.43 s⁻¹ |
| Fl8CE20_II (Salinimicrobium marinum; S435A) (protein, pET28a(+), N-terminal 6xHis tag, expressed in E. coli BL21(DE3), SGNH hydrolase with inserted ancillary domain) VFGQVKLPKLINDGMVLQRNSDIKIWGWASKEESISIFFLDKEYNTVADNNGKWSVSLNDLKAGGPFQMQIKGSNSIQLEDIYIGDVWLASGQSNMEIPMGRVSPLYPEEIAKASNEAIRFFEVPKTFDFNEAKEDLEGGEWVPVAANTIEKLSAVAYFFAKDLYAEYDIPIGIINSALGGSPAEAWISEEALKEFPEHHAESLKYQSKELRDSIETADQTRIGKWYSDIQKKDKGVEENWKAAEIDDSSWKTMDIPGYWADTEFGPKNGVVWFRKTINLQDNWTQGATKLLLGRIVDADSVFVNGKFVGNTTYQYPPRRYEIPEGVLKSGENTISIRIINESGRGGFVEEKEYKLISGEKEMDLTGTWKFKLGAEMPRLQGQTFIRWKPVGLYNAMINPLTDYSINGVIWYQGEANADTPWEYEALMTSLIKDWRNKWNQEDLPFLYVQLANFMESKDQPGDSNWARLRDAQLKTLAVPHTGMAVAIDVGEANDIHPLNKKDVGERLARAAKNVAYGEDIVPAGPLFKSFKKEGDSIVISFKNTGGGLVSKNGKSLSHFSIAGKDGKFRWANAEIRGDKIVVNHPEVKDPVAVRYAWADNPEGANLYNEEGLPASPFRTDEWD | – | – | – | 210 µM | 4.48 s⁻¹ |
